Source: patent publication US20220195061A1 (Novartis, published 2022)

Molecular target: human CD40 on cells (human, UniProt P25942 21-277)
Experiment: cell-based or functional assay

Chain of human CD40 on cells (P25942 21-277 limits assumed): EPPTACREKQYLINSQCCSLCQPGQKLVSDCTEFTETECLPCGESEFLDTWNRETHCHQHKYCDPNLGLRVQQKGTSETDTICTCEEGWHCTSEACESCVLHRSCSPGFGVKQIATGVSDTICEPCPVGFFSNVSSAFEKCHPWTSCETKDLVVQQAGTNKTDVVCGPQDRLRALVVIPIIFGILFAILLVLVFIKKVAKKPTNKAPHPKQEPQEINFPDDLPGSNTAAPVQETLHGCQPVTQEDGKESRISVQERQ

IC50 (read off the curve), rCD154-induced CD69 expression on CD20pos B cells: ~0.1 µg/mL
B1: CFZ533 (antibody, human IgG1, kappa, N297A)
heavy: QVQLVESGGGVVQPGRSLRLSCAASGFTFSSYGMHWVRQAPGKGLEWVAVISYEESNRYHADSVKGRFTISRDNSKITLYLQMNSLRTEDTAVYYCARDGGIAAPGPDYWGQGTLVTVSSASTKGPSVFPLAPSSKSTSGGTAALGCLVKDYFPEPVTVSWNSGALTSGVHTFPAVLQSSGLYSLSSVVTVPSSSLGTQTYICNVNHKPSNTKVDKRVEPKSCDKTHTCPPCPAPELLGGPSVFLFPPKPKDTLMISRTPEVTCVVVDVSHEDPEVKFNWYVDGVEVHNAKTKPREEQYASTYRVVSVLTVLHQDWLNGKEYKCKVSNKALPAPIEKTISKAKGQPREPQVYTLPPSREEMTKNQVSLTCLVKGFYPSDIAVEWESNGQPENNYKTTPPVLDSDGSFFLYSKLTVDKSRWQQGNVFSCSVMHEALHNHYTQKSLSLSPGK
light: DIVMTQSPLSLTVTPGEPASISCRSSQSLLYSNGYNYLDWYLQKPGQSPQVLISLGSNRASGVPDRFSGSGSGTDFTLKISRVEAEDVGVYYCMQARQTPFTFGPGTKVDIRRTVAAPSVFIFPPSDEQLKSGTASVVCLLNNFYPREAKVQWKVDNALQSGNSQESVTEQDSKDSTYSLSSTLTLSKADYEKHKVYACEVTHQGLSSPVTKSFNRGEC
